B1: USP14-1 mutant (structured_RNA)
RNA: GGGUUCACUGCAGACUUGACGAAGCUUGCAGUGAUGUGCUUCUAAAAAACAACCUAAAAAAAUUGCCAAUGGAUCCACAUCUACGAAUUC
B2: USP14-3 mutant (structured_RNA)
RNA: GGGUUCACUGCAGACUUGACGAAGCUUAAAAAAAAGGCUCGUUUGGCCUGCCGAAAAAAGGCCGGGAAAUGGAUCCACAUCUACGAAUUC
B3: USP14-2 mutant (structured_RNA)
RNA: GGGUUCACUGCAGACUUGACGAAGCUUCUGAAAAAAAGUUAGUUUCGCUGGUUUAAAAUCGGUGCGGAAUGGAUCCACAUCUACGAAUUC

Molecular target: USP14 (GST-USP14) (UniProt P54578 1-494)
Experiment: GST pull-down with RT-PCR; 2 pmol GST-protein on GST sepharose 4B resin + 20 pmol RNA; pull-down buffer not restated; SELEX binding buffer 30 mM Tris-HCl pH 7.5, 150 mM NaCl, 1.5 mM MgCl2, 2 mM DTT, 1% BSA, RT
Conditions: protein: recombinant; tags: N-terminal GST (pGEX-2T)

Sequence of USP14 (GST-USP14) (P54578 whole entry): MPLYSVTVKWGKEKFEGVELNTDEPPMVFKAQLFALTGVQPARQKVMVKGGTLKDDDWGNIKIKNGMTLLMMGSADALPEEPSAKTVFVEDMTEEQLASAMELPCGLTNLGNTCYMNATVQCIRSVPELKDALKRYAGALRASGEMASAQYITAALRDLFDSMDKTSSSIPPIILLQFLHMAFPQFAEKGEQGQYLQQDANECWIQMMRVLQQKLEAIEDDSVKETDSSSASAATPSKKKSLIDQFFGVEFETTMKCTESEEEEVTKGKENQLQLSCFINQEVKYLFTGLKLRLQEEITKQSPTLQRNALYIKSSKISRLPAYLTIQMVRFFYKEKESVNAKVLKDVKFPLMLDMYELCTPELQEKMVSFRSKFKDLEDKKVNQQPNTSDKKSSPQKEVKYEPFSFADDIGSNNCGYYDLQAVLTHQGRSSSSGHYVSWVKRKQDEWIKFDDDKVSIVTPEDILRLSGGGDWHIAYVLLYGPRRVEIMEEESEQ

Binding result, no binding:
B1
B2
B3
UUUGUCUAGCGCGUAGUGGGGAGAUGUUGUGAUACUGGGG (ssRNA) [control RNA aptamer]

Reference: PMC4455164, “Facilitated Tau Degradation by USP14 Aptamers via Enhanced Proteasome Activity”
